These results are taken from the supplement of paper PMC12042874.

± gives the uncertainty stated by the source.

A short description of this data set: amyloid nucleation score (Sup35N fusion, yeast selection) (log enrichment); library NNK3; higher = more nucleation; inactive = no reads after selection. A digest of the protocol:
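Growth for 7 days at 30°C on medium lacking adenine and uracil followed a 24-hour induction with 100 μM copper sulfate of psi-negative yeast expressing peptides of 20 random codons fused to Sup35N. Input and output plasmid inserts were sequenced with Illumina, and sequences with under 100 input reads were excluded. Nucleation score is the DiMSum log enrichment of output over input reads, centred on the mode score of non-aggregating sequences.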

Turning to ILSSGLGKHTGLIIAYESAR, the amyloid nucleation score result is “inactive”.
Take SYVCWDIFIGQRSNAALSTI: the amyloid nucleation score result was “inactive”.
Under VTFIRQGLEIVSVVLSICKE stands “inactive”; under WHSWAFGTGCGSRTFEG, 0.526 ± 0.17; under FICCMLIMKVNYDTRLISSM, “inactive”.
Under VFSNGSRDAWSFFNQKSNRF stands 0.193 ± 0.21; under GSPFYIFRVINLYT, 2.93 ± 0.049.
On to WRVAYET, for which the amyloid nucleation score entry was “inactive”.
Under SRCNIFGRPSASIAR stands “inactive”; under FLSEIGADTTKSYWDTIPRF, -1.2 ± 2.5.
As for YLYRNRS, the entry is “inactive”; as for CFANSSYLIGTCLRCACNDR, 2.37 ± 0.072; as for LHVFSECRFIRSLLGPNGIF, “inactive”.
Under WDYKAGISSSLSAIGCLYGD stands “inactive”.
Take VRLSRAVILLAVIHLRWGLT: the amyloid nucleation score result was “inactive”.
As for VKGMKCWCQVRSESGLVSNA, the entry is “inactive”; as for FYTWLPCVYSN, -0.335 ± 1.7.
As to FDVFISENNDAGSHNVEMYQ, the amyloid nucleation score result was “inactive”.
Under FYNRPKWLFVLGPENILCDS stands “inactive”; under NLVTVLIISRWGAGLR, 1.17 ± 0.17; under LGRCFVFMRTVCFDSA, “inactive”.
LVNLCRIRRVLECVRRRHRS: the amyloid nucleation score entry was “inactive”.
Under YNCGHLNYGIVNFLFYVWLI stands “inactive”.
As for KYSMTK, the entry is “inactive”.
With CVGSVPVMTKMVGDMGMASR, the amyloid nucleation score result was “inactive”.
As for VFNRSCINFKRYGSA, the entry is “inactive”.
As for YALVVR, the entry is “inactive”; as for FFSIT, “inactive”; as for NFCLMLDVWINTFRDIIYWG, “inactive”.
With NTTFS, the amyloid nucleation score result was “inactive”.
Under IDFILWQFVMF stands “inactive”; under YFVTFVYTKLLCNVRSLL, 0.578 ± 0.12; under YLSSSYVVGDMSCV, “inactive”.
With DFRGDLFELMMIYGRGMVLT, the amyloid nucleation score entry is “inactive”.
As for MCIHSITECRS, the entry is “inactive”; as for IVIYLSHDKNLIQVRSSCEG, 2.59 ± 0.056; as for TSCRLRV, “inactive”.
Under VYQTFYAIV stands “inactive”; under NNLFWHNAVCLGALEEYLSK, “inactive”.
Under ICYTMST stands “inactive”; under YRPWHDIRTICCSTSSSTIE, 2.5 ± 0.063; under GLKNV, -0.431 ± 0.8.
On to YPLFECSDAPSQDNDTMLTR, for which the amyloid nucleation score result is “inactive”.
Under YWDDWLNSTGRDPSHKPRRT stands 1.95 ± 0.07.
Under KATWSCLHLATHSASPCQSA stands “inactive”.
As for FMLWYSPKLFG, the entry is “inactive”; as for DKSMIFVFI, 0.864 ± 0.22.
With FFMPFRNLIHKLVTTEELYR, the amyloid nucleation score entry was “inactive”.
As for SAEVAYGSFVYAGSWCRSVR, the entry is “inactive”; as for MLGVSYCRQVVYKENSYDFR, “inactive”; as for QYCSGSLKFRGVPIFNGDDG, “inactive”.
Under RNEWCFSKPILEYHCRMDVF stands “inactive”.
With YEMENDVS, the amyloid nucleation score result was “inactive”.
In the case of VGGIRLRIE, the amyloid nucleation score result was “inactive”.
Regarding FWGWLARTNLKILSILFNLI, the amyloid nucleation score entry was “inactive”.
